# Reference: patent publication US20250115669A1, “FGFR1/KLB Targeting Agonistic Antigen-Binding Proteins and Conjugates Thereof with GLP-1R Agonistic Peptides” (SANOFI, priority 2020, published 2025)
# Target: T1, human beta-Klotho (Homo sapiens, UniProt Q86Z14)
# T1 sequence (Q86Z14 1-1044): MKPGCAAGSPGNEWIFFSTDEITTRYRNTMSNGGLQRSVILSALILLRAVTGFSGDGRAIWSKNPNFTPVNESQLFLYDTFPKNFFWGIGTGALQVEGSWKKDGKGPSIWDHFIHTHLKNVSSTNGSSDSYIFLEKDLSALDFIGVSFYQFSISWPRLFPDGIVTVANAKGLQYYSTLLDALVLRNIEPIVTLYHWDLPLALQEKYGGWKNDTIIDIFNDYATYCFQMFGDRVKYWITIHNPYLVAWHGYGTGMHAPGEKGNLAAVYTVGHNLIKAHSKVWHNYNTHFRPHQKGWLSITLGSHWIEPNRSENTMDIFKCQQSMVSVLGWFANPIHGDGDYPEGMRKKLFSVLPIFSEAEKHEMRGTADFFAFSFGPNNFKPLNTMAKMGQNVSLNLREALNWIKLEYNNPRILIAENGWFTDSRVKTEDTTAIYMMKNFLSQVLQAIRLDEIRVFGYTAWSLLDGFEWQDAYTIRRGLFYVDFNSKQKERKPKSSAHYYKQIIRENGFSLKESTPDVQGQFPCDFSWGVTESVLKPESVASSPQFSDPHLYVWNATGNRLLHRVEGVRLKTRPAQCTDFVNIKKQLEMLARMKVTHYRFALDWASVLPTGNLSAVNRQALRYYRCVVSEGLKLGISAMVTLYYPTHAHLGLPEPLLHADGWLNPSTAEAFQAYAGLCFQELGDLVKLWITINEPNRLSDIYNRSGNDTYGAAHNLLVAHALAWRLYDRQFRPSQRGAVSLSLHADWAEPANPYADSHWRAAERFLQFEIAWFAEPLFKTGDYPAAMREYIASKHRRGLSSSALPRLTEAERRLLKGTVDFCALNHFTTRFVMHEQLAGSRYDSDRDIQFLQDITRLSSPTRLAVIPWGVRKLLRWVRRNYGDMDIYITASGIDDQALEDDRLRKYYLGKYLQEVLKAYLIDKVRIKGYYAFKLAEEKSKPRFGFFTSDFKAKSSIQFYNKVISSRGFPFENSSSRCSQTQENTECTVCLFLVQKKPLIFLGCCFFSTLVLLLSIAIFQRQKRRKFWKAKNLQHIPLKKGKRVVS
# Assay: SPR off-rate screening of antibody mutants (human beta-Klotho captured by anti-His antibody)
# Assay type: binding
# Conditions: mean, n=3
# Description: Screening of antibody mutants for binding to human beta-Klotho was determined in a different SPR assay set up. Human beta-Klotho was affinity captured by an anti-His antibody (from His capture kit, GE Healthcare) that was immobilized to a series S CM5 chip (GE Healthcare) by amine reactive coupling as described above. The antibody samples were used as analytes at 50 nmol/L concentration. Association time was 240 sec and dissociation time was 300 sec. Chip surfaces were regenerated using the regeneration solution supplied with the His capture kit. The off-rates (kd) were determined using single exponential fitting in the Biacore 8K Evaluation Software version 1.1.1.7442 (GE Healthcare).
row,Substance,koff human KLB
1,"Ab0186: IgG4 PE; 16H7 VL; 16H7 VH (M34V, I83T)",0.000104 s⁻¹
2,"Ab0187: IgG4 PE; 16H7 VL (N25S); 16H7 VH (M34V, I83T)",0.000156 s⁻¹
3,"Ab0188: IgG4 PE; 16H7 VL (D49Y); 16H7 VH (M34V, I83T)",0.00084 s⁻¹
4,"Ab0189: IgG4 PE; 16H7 VL (D50E); 16H7 VH (M34V, I83T)",0.000387 s⁻¹
5,"Ab0190: IgG4 PE; 16H7 VL (D91T); 16H7 VH (M34V, I83T)",0.000195 s⁻¹
6,"Ab0191: IgG4 PE; 16H7 VL (N93E); 16H7 VH (M34V, I83T)",0.000144 s⁻¹
7,"Ab0192: IgG4 PE; 16H7 VL (D95E); 16H7 VH (M34V, I83T)",invalid fit
8,"Ab0193: IgG4 PE; 16H7 VL; 16H7 VH (I83T, D109E)",0.000337 s⁻¹
9,"Ab0194: IgG4 PE; 16H7 VL (N25S); 16H7 VH (I83T, D109E)",0.000402 s⁻¹
10,"Ab0195: IgG4 PE; 16H7 VL (D49Y); 16H7 VH (I83T, D109E)",0.00267 s⁻¹
11,"Ab0196: IgG4 PE; 16H7 VL (D50E); 16H7 VH (I83T, D109E)",0.00194 s⁻¹
12,"Ab0197: IgG4 PE; 16H7 VL (D91T); 16H7 VH (I83T, D109E)",0.00167 s⁻¹
13,"Ab0198: IgG4 PE; 16H7 VL (N93E); 16H7 VH (I83T, D109E)",0.000346 s⁻¹
14,"Ab0199: IgG4 PE; 16H7 VL (D95E); 16H7 VH (I83T, D109E)",invalid fit
15,"Ab0200: IgG4 PE; 16H7 VL; 16H7 VH (M34V, I83T, D109E)",0.000369 s⁻¹
16,"Ab0201: IgG4 PE; 16H7 VL (N25S); 16H7 VH (M34V, I83T, D109E)",0.000336 s⁻¹
17,"Ab0202: IgG4 PE; 16H7 VL (D49Y); 16H7 VH (M34V, I83T, D109E)",0.00161 s⁻¹
18,"Ab0203: IgG4 PE; 16H7 VL (D50E); 16H7 VH (M34V, I83T, D109E)",0.00151 s⁻¹
19,"Ab0204: IgG4 PE; 16H7 VL (D91T); 16H7 VH (M34V, I83T, D109E)",0.00133 s⁻¹
20,"Ab0205: IgG4 PE; 16H7 VL (N93E); 16H7 VH (M34V, I83T, D109E)",0.000334 s⁻¹
21,"Ab0207: IgG4 PE; 16H7 VL; 16H7 VH (I83T, D109Y)",0.00188 s⁻¹
22,"Ab0208: IgG4 PE; 16H7 VL (N25S); 16H7 VH (I83T, D109Y)",0.0021 s⁻¹

row,Substance,koff human KLB
1,"Ab0209: IgG4 PE; 16H7 VL (D49Y); 16H7 VH (I83T, D109Y)",invalid fit
2,"Ab0210: IgG4 PE; 16H7 VL (D50E); 16H7 VH (I83T, D109Y)",invalid fit
3,"Ab0211: IgG4 PE; 16H7 VL (D91T); 16H7 VH (I83T, D109Y)",invalid fit
4,"Ab0212: IgG4 PE; 16H7 VL (N93E); 16H7 VH (I83T, D109Y)",0.00185 s⁻¹
5,"Ab0213: IgG4 PE; 16H7 VL (D95E); 16H7 VH (I83T, D109Y)",invalid fit
6,"Ab0214: IgG4 PE; 16H7 VL; 16H7 VH (I83T, D109S)",0.00121 s⁻¹
7,"Ab0215: IgG4 PE; 16H7 VL (N25S); 16H7 VH (I83T, D109S)",0.00125 s⁻¹
8,"Ab0216: IgG4 PE; 16H7 VL (D49Y); 16H7 VH (I83T, D109S)",0.00984 s⁻¹
9,"Ab0217: IgG4 PE; 16H7 VL (D50E); 16H7 VH (I83T, D109S)",0.002 s⁻¹
10,"Ab0218: IgG4 PE; 16H7 VL (D91T); 16H7 VH (I83T, D109S)",0.00668 s⁻¹
11,"Ab0219: IgG4 PE; 16H7 VL (N93E); 16H7 VH (I83T, D109S)",0.000915 s⁻¹
12,"Ab0220: IgG4 PE; 16H7 VL (D95E); 16H7 VH (I83T, D109S)",invalid fit
13,Ab0234: IgG4 PE; 16H7 VL (N93S); 16H7 VH,0.00011 s⁻¹
14,"Ab0295: IgG4 PE; 16H7 VL (N25S, D49Y); 16H7 VH (M34V, I83T, D109E)",0.00157 s⁻¹
15,"Ab0296: IgG4 PE; 16H7 VL (N25S, D50E); 16H7 VH (M34V, I83T, D109E)",0.00137 s⁻¹
16,"Ab0297: IgG4 PE; 16H7 VL (D49Y, D50E); 16H7 VH (M34V, I83T, D109E)",0.00156 s⁻¹
17,"Ab0300: IgG4 PE; 16H7 VL (D49Y, D91T); 16H7 VH (M34V, I83T, D109E)",invalid fit
18,"Ab0302: IgG4 PE; 16H7 VL (D50E, D91T); 16H7 VH (M34V, I83T, D109E)",invalid fit
19,"Ab0306: IgG4 PE; 16H7 VL (N25S, N93E); 16H7 VH (M34V, I83T, D109E)",0.000288 s⁻¹
20,"Ab0307: IgG4 PE; 16H7 VL (D49Y, N93E); 16H7 VH (M34V, I83T, D109E)",0.00118 s⁻¹
21,"Ab0309: IgG4 PE; 16H7 VL (D50E, N93E); 16H7 VH (M34V, I83T, D109E)",0.00103 s⁻¹
22,"Ab0386: IgG4 PE; 16H7 VL (D95S, W90F); 16H7 VH (M34V, F54W, I83T, D109E)",no binding
